According to paper PMC3965382:

Biological target: T1, purified Gαs, P63092
T1 chain: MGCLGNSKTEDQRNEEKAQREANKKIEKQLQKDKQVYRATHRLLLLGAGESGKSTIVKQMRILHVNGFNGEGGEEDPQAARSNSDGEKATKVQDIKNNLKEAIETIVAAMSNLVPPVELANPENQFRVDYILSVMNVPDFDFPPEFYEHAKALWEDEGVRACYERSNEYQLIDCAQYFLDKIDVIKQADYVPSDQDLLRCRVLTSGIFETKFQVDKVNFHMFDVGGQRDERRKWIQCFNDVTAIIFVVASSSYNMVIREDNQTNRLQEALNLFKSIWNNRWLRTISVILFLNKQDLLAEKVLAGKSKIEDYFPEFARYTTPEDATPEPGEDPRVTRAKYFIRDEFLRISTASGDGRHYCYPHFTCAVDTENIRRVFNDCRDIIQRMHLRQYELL
Experiment: SPR
Settings: chain shown with the change, read off a plot

- response (500 nM coronin 1 injected over immobilized Gαs, parent: est. 120): 25 RU
- response (1000 nM coronin 1 injected over immobilized Gαs, parent: est. 400): 76 RU
B1: wild-type coronin 1, HA-tagged, O89053 K20A; R69A; K355A; E102A (protein)
chain: MSRQVVRSSKFRHVFGQPAAADQCYEDVRVSQTTWDSGFCAVNPKFMALICEASGGGAFLVLPLGKTGAVDKNVPLVCGHTAPVLDIAWCPHNDNVIASGSADCTVMVWEIPDGGLVLPLREPVITLEGHTKRVGIVAWHPTAQNVLLSAGCDNVILVWDVGTGAAVLTLGPDVHPDTIYSVDWSRDGALICTSCRDKRVRVIEPRKGTVVAEKDRPHEGTRPVHAVFVSEGKILTTGFSRMSERQVALWDTKHLEEPLSLQELDTSSGVLLPFFDPDTNIVYLCGKGDSSIRYFEITSEAPFLHYLSMFSSKESQRGMGYMPKRGLEVNKCEIARFYKLHERKCEPIAMTVPRASDLFQEDLYPPTAGPDPALTAEEWLGGRDAGPLLISLKDGYVPPKSRELRVNRGLDSARRRATPEPSGTPSSDTVSRLEEDVRNLNAIVQKLQERLDRLEETVQAK
